Patent US20090149343

Biological target: 48 discrete histone H3 peptides containing a wide range of histone modifications at defined residues (micro-array bound)

B1: recombinant human histone methyl-transferase SET 7/9 (protein)
chain: MDSDDEMVEEAVEGHLDDDGLPHGFCTVTYSSTDRFEGNFVHGEKNGRGKFFFFDGSTLEGYYVDDALQGQGVYTYEDGGVLQGTYVDGELNGPAQEYDTDGRLIFKGQYKDNIRHGVCWIYYPDGGSLVGEVNEDGEMTGEKIAYVYPDERTALYGKFIDGEMIEGKLATLMSTEEGRPHFELMPGNSVYHFDKSTSSCISTNALLPDPYESERVYVAESLISSAGEGLFSKVAVGPNTVMSFYNGVRITHQEVDSRDWALNGNTLSLDEETVIDVPEPYNHVSKYCASLGHKANHSFTPNCIYDMFVHPRFGPIKCIRTLRAVEADEELTVAYGYDHSPPGKSGPEAPEWYQVELKAFQATQQK
  SET 7/9 dependent methylation of micro-array bound histone peptides, detected by anti-H3K4me1 antibody: also detects a large number of newly created additional sites containing this epitope after HMTase incubation
